Data on four molecules can be found in patent US20110020432A1, “COMPOSITIONS AND METHODS OF USE FOR POST-RADIATION PROTECTION” (TERAPIO CORPORATION, priority 2009, published 2011).

For one experiment, the system named is mice. As to conditions: whole animal studies; reported DRF; cited from earlier work.
The conditions of experiment [1]: reported in the scientific literature; cited from earlier work.
Experiment [2] has as its system wild-type (+/+) and homozygous (−/−) RIP1 mice. In words: Survival of wild-type and RIP1 knockout mice after X-irradiation, RLIP76 liposomes i.p. In kind it is in vivo. As for the experimental part:
FIG. 5. Effect of RLIP76 on survival after higher doses of X irradiation. Four wild-type (+/+) RIP1 mice and four homozygous (−/−) mice were each exposed to 750 cGy X irradiation and treated with control liposomes administered by i.p. injection (triangles, homozygous RIP1 mice; diamonds, wild-type RIP mice), or 400 μg RLIP76 liposomes administered by i.p. injection (squares, homozygous RIP1 mice; circles, wild-type RIP1 mice), given 12 hours after exposure.
As disclosed in U.S. Ser. No. 11/741,447, C57B mice that carry both copies of the RIP1 (mouse version of RLIP76) gene (wild-type; +/+), one copy of the RIP1 gene (heterozygous; +/−), or no copies of the RIP1 gene (homozygous; −/−) were created using Cre-Lox technology that can selectively suppress genes (Lexicon Genetics, Incorporated, The Woodlands, Tex.). Western blot analysis of tissues from homozygous RIP 1 knockout mice was performed after i.p. injection of RLIP76-liposomes. […]
If loss of RIP1 was the major determining factor in this acquired radiation sensitivity, replacement of this deficit should reverse radiation […]. […] Liposomes were prepared in sufficient quantities and administered via intraperitoneal (i.p.) injection to homozygous RIP1 mice. […]

For another experiment, the system named is C57BL6/albino mice. In words: Survival after whole body X-irradiation, oral RLIP76 proteoliposomes (dose and time response). The format is in vivo. On the procedure:
In order to investigate whether RLIP76 could be effective when delivered more than 24 hours after radiation exposure, a series of studies were conducted to explore the protective benefit of RLIP76 when given at varying doses, exposure levels, and times after exposure. All mice were C57BL6/albino strain, the strain most commonly used for radiation effect models. Exposure was delivered by whole body X-irradiation with a Varian Clinac Linear accelerator (2100C) at the Texas Cancer Center (Arlington, Tex.). A 6-MeV photon beam was used at a rate of 400 cGy/minute. Mice were isolated to one side of their cage on top of 1.5 cm of superflab bolus and the field of treatment centered on them. Total dose was split into two fractions, anterior and posterior, by rotating the accelerator gantry 180 degrees. Unless otherwise specified, all experiments were performed on six mice per group.
Dose and time dependency was investigated over a range of radiation exposures. Initially, six groups of wild-type mice were exposed to 500 cGy of radiation, and then treated with no RLIP76 proteoliposomes (control) or various dosages of RLIP76 proteoliposomes given at various times after the radiation exposure. […]

Turning to `CC1(C)CC(O)CC(C)(C)N1[O]` [tempol, 4-hydroxy-2,2,6,6-tetramethylpiperidinyloxy], the “dose-reduction factor (DRF)” value in the experiment with mice is reported as 1.3.
For the molecule `Cc1cc(C(C)(C)C)c(O)c(C(C)(C)C)c1` [BHT, butylated hydroxytoluene], in experiment [1], the “radioprotective effect on its own” value was “radioprotective effect”.
As for `CC1=NN(c2ccccc2)C(=O)C1` [edaravone, 3 methyl-1-phenyl-2-pyrazolin-5-one], the “dose-reduction factor (DRF)” value with mice was 1.3.

B1: RLIP76 protein: ubiquitous multi-specific efflux pump protein; human sequence of 655 amino acids, GenBank NP—006779; recombinant (protein, UniProt Q15311 2-655, looked up)
RalA-binding protein 1: TECFLPPTSSPSEHRRVEHGSGLTRTPSSEEISPTKFPGLYRTGEPSPPHDILHEPPDVVSDDEKDHGKKKGKFKKKEKRTEGYAAFQEDSSGDEAESPSKMKRSKGIHVFKKPSFSKKKEKDFKIKEKPKEEKHKEEKHKEEKHKEKKSKDLTAADVVKQWKEKKKKKKPIQEPEVPQIDVPNLKPIFGIPLADAVERTMMYDGIRLPAVFRECIDYVEKYGMKCEGIYRVSGIKSKVDELKAAYDREESTNLEDYEPNTVASLLKQYLRDLPENLLTKELMPRFEEACGRTTETEKVQEFQRLLKELPECNYLLISWLIVHMDHVIAKELETKMNIQNISIVLSPTVQISNRVLYVFFTHVQELFGNVVLKQVMKPLRWSNMATMPTLPETQAGIKEEIRRQEFLLNCLHRDLQGGIKDLSKEERLWEVQRILTALKRKLREAKRQECETKIAQEIASLSKEDVSKEEMNENEEVINILLAQENEILTEQEELLAMEQFLRRQIASEKEEIERLRAEIAEIQSRQQHGRSETEEYSSESESESEDEEELQIILEDLQRQNEELEIKNNHLNQAIHEEREAIIELRVQLRLLQMQRAKAEQQAQEDEEPEWRGGAVQPPRDGVLEPKAAKEQPKAGKEPAKPSPSRDRKETSI
With B1, the “survival as compared with RIP1+/+ mice” value in experiment [2] (RIP1−/− mice supplemented with RLIP76, 750 cGy) is reported as “significantly improved survival”. In addition, in experiment [2] (mice genetically deficient in RLIP76 protein, supplementation by intravenous or oral administration), the “reversal of radiation sensitivity” value is given as “can be reversed”. For the same molecule, the “rescue with delayed first dose” value in the experiment on C57BL6/albino mice (initial dose given a full 24 hours or more after the radiation exposure) is given as “significant rescue”. This molecule also showed an increase in survival in the experiment with C57BL6/albino mice (wild-type mice, radiation dose that normally results in complete lethality by day 30 (500 cGy), 2 doses of 100 micrograms, oral) of 200%.
